T1: human ILDR2 (Immunoglobulin Like Domain Containing Receptor 2) (human, UniProt Q71H61 21-639)
T1 sequence (looked up): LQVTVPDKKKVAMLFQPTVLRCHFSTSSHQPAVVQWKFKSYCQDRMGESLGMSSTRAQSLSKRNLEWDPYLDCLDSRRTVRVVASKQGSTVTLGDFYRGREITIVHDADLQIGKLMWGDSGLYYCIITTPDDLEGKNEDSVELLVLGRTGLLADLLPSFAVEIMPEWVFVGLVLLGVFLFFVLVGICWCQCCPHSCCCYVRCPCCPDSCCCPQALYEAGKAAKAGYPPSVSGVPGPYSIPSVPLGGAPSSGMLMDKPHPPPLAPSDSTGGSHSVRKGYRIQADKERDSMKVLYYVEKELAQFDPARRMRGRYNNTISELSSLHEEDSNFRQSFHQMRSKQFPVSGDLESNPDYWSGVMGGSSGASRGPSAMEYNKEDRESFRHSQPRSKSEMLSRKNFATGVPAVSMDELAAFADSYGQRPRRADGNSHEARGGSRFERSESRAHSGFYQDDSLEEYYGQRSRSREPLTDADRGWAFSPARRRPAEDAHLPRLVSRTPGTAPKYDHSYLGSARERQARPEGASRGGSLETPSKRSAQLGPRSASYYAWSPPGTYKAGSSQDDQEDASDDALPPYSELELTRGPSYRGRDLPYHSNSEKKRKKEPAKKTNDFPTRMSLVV

B1: 59-08.B02 (antibody, V domains shown)
VH: QVQLVQSGAEVKKPGSSVKVSCKASGGTFSSYAISWVRQAPGQGLEWMGGIIPILGIANYAQKFQGRVTITADKSTSTAYMELSSLRSEDTAVYYCARGRLPYGDFWDSWGQGTLVTVSS
VL: not shown
notes: also called BAY1905254; aILDR2
B2: 61-02.C05 (antibody, V domains shown)
VH: EVQLVESGGGVVQPGGSLRLSCAASGFTFSSYAMSWVRQAPGKGLEWVSGISSSGGSTQYADSVKGRFTVSRDNSKNTLYLQMKSLRAEDTALYYCAKDFVGVLPDAFDIWGQGTMVTVSS
VL: DIQLTQSPSSLSASVGDRVTITCQASQDTNKYLNWYQQKPGKAPELLIYGASTLESGVPPRFSASGSGTDFTLTINSLQPEDIGRYYCQQYHIPPPSFGGGTKLEIK
notes: Full length IgG; The KD assay says 'hIgG1s'; also called 61-02.005
B3: 56-02.E08 (antibody, V domains shown)
VH: EVQLVQSGAEVKKPGESLKISCKASGYSFTTYWIGWVRQVPGKGLEWMGIIYPGDYDTRYSPSFQGQVTISADKSINTAYLQWSSLEASDSAMYYCAIGEPFDYWGQGTLVTVSS
VL: not shown
notes: Full length IgG; The KD assay says 'hIgG1s'
B4: 74.15.G09 (antibody, V domains shown)
VH: EVQLVESGGGVVQPGRSLRLSCAASGFTFSSYGMHWVRQAPGKGLEWVAVISYDGSNKYYADSVKGRFTISRDNSKNTLYLQMNSLRAEDTAVYYCAKESPSVGLGSYYDFWSGLYGMDVWGQGTTVTVSS
VL: EIVLTQSPGTLSLSPGERVTLSCRTGQRVENLFIAWYQQKPGQAPRLLLYGASNRATGIPDRFSGSGSGTDFTLTISRLEPEDSAVYYCQQYDDSGITFGQGTRLEIK
notes: as for B3
B5: 56.02.E10 (antibody, V domains shown)
VH: QVQLVESGGGLVKPGGSLRLSCAASGFTFSNYGMHWVRQAPGKGPEWLAFIRYDGSKKYYADSVRGRFTISRDNSKNMLYLQMNSLRTEDTAVYYCAKEGIAAPGSGYYYGMDVWGQGTTVTVSS
VL: QSALTQPASVSGSPGQSITISCSGTTTDVGRYTLVSWYQHHPGKAPKLIIFEVNKRPSGVSSRFSGSKSGNTASLTISGLQTEDEADYFCCSYTGTTVIFGGGTQLTVL

What follows are binders tested against T1, human ILDR2 (Immunoglobulin Like Domain …) (assay: cell-based or functional assay).

**Q.** For B1, which “IL2 concentration (% over isotype control), mixed lymphocyte reaction” value is on record?
**A.** 91 % over isotype control

**Q.** How did the “IL2 concentration (% over isotype control), mixed lymphocyte reaction” value turn out when B2 was run?
**A.** 82 % over isotype control

**Q.** B3 was tested. Which “IL2 concentration (% over isotype control), mixed lymphocyte reaction” value did it give?
**A.** 74 % over isotype control

**Q.** For B4, which “IL2 concentration (% over isotype control), mixed lymphocyte reaction” value is on record?
**A.** 86 % over isotype control

**Q.** Which “IL2 concentration (% over isotype control), mixed lymphocyte reaction” value does the source give for B5 here?
**A.** 223 % over isotype control

What follows are binders tested against T1, human ILDR2 (Immunoglobulin Like Domain …) (assay: flow cytometry titration of hIgG1 on HEK cells stably transfected with human ILDR2; 1:1 equilibrium fit of MFI).
Method: KD values were determined by flowcytometric quantitation of binding to HEK cells stably transfected with human ILDR2 and use of an algorithm designed to extrapolate affinities based on the binding curve. Briefly, hIgG1 s were added at a binding site concentration range of 3 pM-209 nM to a constant number of cells (100,000 cells/well) over 16 wells in a 96-well plate. One well contained cells without any added IgG to serve as a blank well. The cells were equilibrated for 4 hours at 4° C. An excess of Cy5-labeled goat anti-human polyclonal antibody (Jackson ImmunoResearch 109-606-097) at 90nM was added to each well after one FACS buffer wash of the cells. Cells were washed twice after a 30 minute incubation (at 4° C.) with the labeling pAb and then the Mean Fluorescence Intensity (MFI) was recorded over approximately 10,000 “events” using an Intellicyte flow cytometer. The […] of the IgGs binding to HEK 293 cells expressing ILDR2 were estimated by fitting the MFI vs. the IgG binding site concentration curve using a 1:1 equilibrium model as detailed in Drake and Klakamp (2007).

**Q.** Which Kd does the source give for B1 here?
**A.** 2 nM

**Q.** How did the Kd turn out when B2 was run?
**A.** 10.7 nM

**Q.** How did the Kd turn out when B3 was run?
**A.** 2.7 nM

**Q.** B4 was tested. Which Kd did it give?
**A.** 12.4 nM

— patent US20200369769A1 (Bayer, published 2020)
